We go through 18 sequences from the supplement of paper PMC9170038.

The subject of this data set is MS2 coat protein. In words: apparent KD of MS2 coat protein; higher = weaker reporter binding. To be noted: Eterna round: R107. In outline: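 Values are apparent KD, taken as the median for each design of fits to normalised binding curves from individual clusters. The designed RNA switches were transcribed on-chip from Illumina sequencing clusters and exposed to SNAP-549-labelled MS2 coat protein at twofold increasing amounts from 0.7 or 1.5 nM to 3 µM. Titration used 100 mM Tris-HCl pH 7.5, 80 mM KCl and 4 mM MgCl2, without or with constant ligand.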

[1] abbreviates: input ligand: theophylline 20 uM.
[2] abbreviates: input ligand: theophylline 2 mM.
[3] abbreviates: input ligand: tryptophan 2.4 mM.

As to “GUGGACAUGAGGAUCACCCAUGUAAGUCGGCGAGGACCGGUACGGCCGCCACUCGUGUUCUGUCUCAGCUCAAACGUAGCCGGAA [theeternabot_sameState_MS2_Trp_A_13]”, the “apparent KD of MS2 coat protein” value is 34.2 nM (input ligand: arginine 13.2 mM), 51.8 nM under setting [1] and 39.2 nM under setting [2].
For the sequence “GUGGAGACCUCGGCCGCCACUCUCCAUGAGGAUCUCCCAUGUAACAUGAGGAUCACCCAUGUGCUGAGGACCGGGAGGUCCUGAA [Same State Tryptophan B GF 19]”, the “apparent KD of MS2 coat protein” value reads like this: (input ligand: arginine 13.2 mM) 15.7 nM; (input ligand: none) 9.47 nM; under setting [1], 13.4 nM; under setting [2], 11 nM; under setting [3], 9.55 nM.
Turning to “GUGUACAUGAGGAUCACCCAUGUCGAGUUACGAGGACCGGUACGGCCGCCACUCGGCGGCUCGACACGGAUAGCGAUGCGUUGCU [#18 Exclusion Tryptophan A]”, the “apparent KD of MS2 coat protein” value reads like this: (input ligand: arginine 13.2 mM) 24.6 nM; under setting [1], 49.5 nM; under setting [2], 44.1 nM.
In the same order, the values of “GUUAUAUACUCGGCCGCCACUGAGAGAGUCAUGUAAACAUGAGGAUCACCCAUGUAAUAUAUAUACAGGACCGGGAGUAUGGUAA [4.E]” are 12.1 nM, 18.6 nM and 14 nM.
As to “GUUAUAUUAAUUGAUACCAGCGAGAAAACAUGAGGAUCACCCAUGUUCGCCCAUGUUAAGCGCCCUUGGCAGCAAUUUUAUUAGC [AstrosExyTheB#2]”, the “apparent KD of MS2 coat protein” value stood at 32.1 nM (input ligand: arginine 13.2 mM), 44.3 nM under setting [1] and 37.5 nM under setting [3].
With “GUUAUGGACCUGGAUACCAGCUGGUACAAGGGCGGUCUACAUGAGGAUCACCCAUGUGUCAGCCCUUGGCAGCCAGCAACCGGCA [Teraus]”, the “apparent KD of MS2 coat protein” value is 9.36 nM (input ligand: arginine 13.2 mM), 12.5 nM under setting [1] and 8.95 nM under setting [3].
In the case of “GUUGGACUUUCGGCCGCCACUGAGAGAGUCAUGUGAACAUGAGGAUCACCCAUGUAAUAUAUAUACAGGACCGGGAGGGUUGUAA [4.M]”, the “apparent KD of MS2 coat protein” value is, setting by setting: (input ligand: arginine 13.2 mM) 11.7 nM; under setting [1], 22 nM; under setting [2], 13.9 nM.
As for “GUUGUAUACUCGGCCGCCACUGAGAGAGUCAUGUGAACAUGAGGAUCACCCAUGUAAUAUAUAUACAGGACCGGGAGUGUGGUAA [4.H]”, the “apparent KD of MS2 coat protein” value was 14.5 nM (input ligand: arginine 13.2 mM); 16.8 nM (input ligand: none); 16.5 nM under setting [1]; 14.4 nM under setting [2]; 15.8 nM under setting [3].
Take “UAAUCAGUGCCGGUUCUCGGAUCCUCAUGUCGAGGACCGGUACGGCCGCCACUCGAAACAUGAGGAUCACCCAUGUAAUAAUAAU [#09 Exclusion Tryptophan A]”: the “apparent KD of MS2 coat protein” value reads like this: (input ligand: arginine 13.2 mM) 44.2 nM; under setting [1], 116 nM; under setting [2], 103 nM.
“UAAUCUGGUCUUCGAUAGGUGAUCCUCAAACGAGGACCGGUACGGCCGCCACUCGAUAACAUGAGGAUCACCCAUGUACGAGUGA [|T'-M'-Trp-Ms2|_Design16b]”: the “apparent KD of MS2 coat protein” value (input ligand: arginine 13.2 mM) came to 52.8 nM; the “apparent KD of MS2 coat protein” value (input ligand: none) came out at 134 nM; the “apparent KD of MS2 coat protein” value under setting [1] amounted to 155 nM; the “apparent KD of MS2 coat protein” value under setting [2] turned out to be 205 nM; the “apparent KD of MS2 coat protein” value under setting [3] came to 119 nM.
Consider “UACAUACAUGAGGAUCACCCAUGUUGCGAUACCAGCGAAAGAGACCGCCCUUGGCAGCGCUCAUUUAGUUCCAUUCUUGAUCGAA [theeternabot_sameState_MS2_Theo_A_4]”, for which the “apparent KD of MS2 coat protein” value was 14.5 nM (input ligand: arginine 13.2 mM), 23.7 nM under setting [1] and 14.7 nM under setting [3].
As to “UACAUGAGGAUCACCCAUGUCCCAUGUGAACGAGGACCGGUACGGCCGCCACUCGACCGAGGCGGCACAUGAGGAUCACCCGCAU [whbob_SS_trypto A_2s15]”, the “apparent KD of MS2 coat protein” value (input ligand: arginine 13.2 mM) worked out at 121 nM, the “apparent KD of MS2 coat protein” value under setting [1] was 917 nM and the “apparent KD of MS2 coat protein” value under setting [2] turned out to be 1140 nM.
For the sequence “UACAUGAGGAUCACCCAUGUGUAGAGGGAUACCAGUGACAGUAAGCACCCUUGGCAGCCCGUGAACAAAGGGUGGGCAAAAUAGU [#16 Exclusion-TheophyllineA]”, the “apparent KD of MS2 coat protein” value runs as follows: (input ligand: arginine 13.2 mM) 48.2 nM; (input ligand: none) 39.2 nM; under setting [1], 60.3 nM; under setting [2], 47.4 nM; under setting [3], 33.9 nM.
Consider “UAGAAGAACAUGCGGGCUCCGGACGGUGAUACCAGAUCGAAAAGGAUCCCUUGGCAGCACUGCACAUGAGGAUCACCCAUGUGCA [theeternabot_exclusion_MS2_Theo_A_7]”, for which the “apparent KD of MS2 coat protein” value turned out to be 11.8 nM (input ligand: arginine 13.2 mM), 11 nM under setting [1] and 10.1 nM under setting [3].
Take “UAGUCCGCGACGGCCGCCACUCGCUGAUGCACAUGUGUCCGGGACAUGAGGAUCACCCAUGUUUCGAGGACCGGGUCGAUCCUAA [Same State Tryptophan B GF 5]”: the “apparent KD of MS2 coat protein” value (input ligand: arginine 13.2 mM) was 37.5 nM, the “apparent KD of MS2 coat protein” value under setting [1] was found to be 81.5 nM and the “apparent KD of MS2 coat protein” value under setting [2] worked out at 91.6 nM.
On to “UAUCCACAUGAGGAUCACCCAUGUUAGGAAGGAGCGGUGAAUGAACCAGGUAGGUCGCCUAGCUGAGGACCGUCGAUGGAUUCGU [Exclusion - Arginine A (Freestyle 16)]”, for which the “apparent KD of MS2 coat protein” value was found to be 13.7 nM (input ligand: arginine 13.2 mM), 27.3 nM (input ligand: none), 28.2 nM under setting [2] and 18.4 nM under setting [3].
With “UAUCUACAUGAAUAGGUUAUUCGAUUAUUUCGAGGACCGGUACGGCCGCCACUCGUUAACAUAUACAUGAGGAUCACCCAUGUUA [JR_Nu_SSTryptoA_Sub024]”, the “apparent KD of MS2 coat protein” value came to 16 nM (input ligand: arginine 13.2 mM), 22.7 nM under setting [1] and 21.5 nM under setting [2].
In the same order, the values of “UCAAUACAGUCGGCCGCCACUGUAACCAAACCUACAUACCAACAUGAGGAUCACCCAUGUUUAUACAGGACCGGGACCUCUAUGA [theeternabot_sameState_MS2_Trp_B_10]” are 32.6 nM, 45.8 nM and 46.4 nM.
